Results as given in patent publication US20190016796A1.

Assays:
[1] = target: murine interleukin-2 (mouse) (UniProt P04351); test: SPR, MAB602 amine-coupled to GLM chip, mouse IL-2 as analyte at concentrations >1 nM
[2] = target: human interleukin-2 (human) (UniProt P60568); test: SPR, antibody amine-coupled to GLM chip, hIL-2 as analyte (100 nM, three-fold dilutions)
[3] = target: human interleukin-2 (human) (UniProt P60568); test: sandwich ELISA, hIL-2 captured on coated 5344, biotinylated MAB602 as detector, no competitor (well H11)

Sequence of human interleukin-2 (human) (P60568 21-153 limits assumed): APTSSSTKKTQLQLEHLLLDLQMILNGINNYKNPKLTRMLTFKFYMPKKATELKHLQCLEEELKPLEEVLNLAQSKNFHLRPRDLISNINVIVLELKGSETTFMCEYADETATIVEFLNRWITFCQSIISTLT
Sequence of murine interleukin-2 (mouse) (P04351 21-169 limits assumed): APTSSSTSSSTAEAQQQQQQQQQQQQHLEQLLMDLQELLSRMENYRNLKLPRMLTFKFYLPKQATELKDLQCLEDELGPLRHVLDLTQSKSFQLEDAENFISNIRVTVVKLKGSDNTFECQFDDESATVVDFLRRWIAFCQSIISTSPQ

response units (RU) [1]: > 10 RU
Kd [2]: 9.7 nM
koff [2]: 0.000494 s⁻¹
absorbance (OD450) [3]: 1.1 OD450
B1: commercially available anti-human IL-2 monoclonal antibody MAB602 (antibody, from another filing, V domains shown)
VH: EVQLQESGPGLVAPSQSLSITCTVSGFSLTNYDISWIRQPPGKGLEWLGVIWTGGGTNYNSGFMSRLSITKDNSKSQVFLKMNSLQTDDTAIYYCVRQGRTPYWGQGTLVTVSA
VL: DIQVTQSPSSLSVSLGDRVTITCKASKDIYNRLAWYQQKPGNAPRLLISGATSLETGVPSRFSGSGSGKDYTLTITSLQTEDVATYYCQQFWGTPYTFGGGTKLEIKR
